Experimental data taken from publication PMC8396344, “Palmitoylation of Prolactin-Releasing Peptide Increased Affinity for and Activation of the GPR10, NPFF-R2 and NPFF-R1 Receptors: In Vitro Study” (International Journal of Molecular Sciences, 2021).
Non-standard residues stand in square brackets, D forms with d. No end group written: not given here. NMeF = CN[C@@H](Cc1ccccc1)C(=O)O

How the values were obtained:
[1] = molecular target: T1, GPR10 (Homo sapiens, UniProt P49683); assay: Cell signaling by immunoblotting, CHO-K1 cells expressing GPR10; assay type: cell-based; details: dose-response 10^−11 to 10^−5 M, 5 min, 37 °C, immunoblot, at least two experiments
T1 construct: host or cells: CHO-K1
T1 sequence (P49683 1-370): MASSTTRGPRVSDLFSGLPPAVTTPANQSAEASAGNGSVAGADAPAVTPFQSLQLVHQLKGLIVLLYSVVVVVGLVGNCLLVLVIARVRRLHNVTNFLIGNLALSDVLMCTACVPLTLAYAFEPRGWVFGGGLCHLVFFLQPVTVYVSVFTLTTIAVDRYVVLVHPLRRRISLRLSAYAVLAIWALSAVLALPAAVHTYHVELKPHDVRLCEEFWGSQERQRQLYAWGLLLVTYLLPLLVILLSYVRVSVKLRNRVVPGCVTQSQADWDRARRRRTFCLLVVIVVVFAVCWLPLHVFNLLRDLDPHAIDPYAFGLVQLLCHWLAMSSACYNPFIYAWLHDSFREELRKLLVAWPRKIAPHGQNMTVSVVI
Experimental: (§1) Activation of signaling pathways was studied in the CHO-K1 cell lines containing GPR10, NPFF-R2 and NPFF-R1. Cells were seeded in 24-well plates at 30,000 cells/well in assay medium (growth medium without selective antibiotics) and were grown for 2 days. The day before the experiment, the medium was changed to serum-free medium. […] Cells were lysed with Laemmli sample buffer (62.5 mM Tris-HCl at pH 6.8, 2% SDS, 10% glycerol, 0.01% bromophenol blue, 5% β-mercaptoethanol, 50 mM NaF, and 1 mM Na3VO4). Samples were stored at −20 °C. Electrophoresis and immunoblotting were performed as described previously. For detection of signaling pathways, primary monoclonal antibodies (see Table 5 for the antibodies used) purchased from Cell Signaling Technology (Danvers, MA, USA) were used.
(§2) Experiments using immunoblotting were analyzed using one-way ANOVA followed by Dunnett’s post hoc test; p < 0.05 was considered statistically significant. Dose-response curves were obtained from nonlinear regression.

[2] = molecular target: T2, NPFF-R2 (Homo sapiens, UniProt Q9Y5X5); assay: Cell signaling by immunoblotting, CHO-K1 cells expressing NPFF-R2; assay type: cell-based; details: dose-response 10^−11 to 10^−5 M, 5 min, 37 °C, immunoblot, at least two experiments
T2 construct: host or cells: CHO-K1 (AequoScreen, co-expressing aequorin)
Experimental: as §1, with “Cells” for “Activation of signaling pathways was studied in the CHO-K1 cell lines containing GPR10, NPFF-R2 and NPFF-R1. Cells”
as §2

[3] = molecular target: kappa-opioid receptor (UniProt P41145 1-380); assay: radioligand binding; competition with [^125I]-dynorphin A on plasma membranes of CHO-K1 cells with KOR, 5 µg protein/tube; 50 mM Tris-HCl pH 7.4, 60 mM NaCl, 1 mM MgCl2, 0.5% BSA; 60 min at RT; filtration; Ki by the Cheng-Prusoff equation
[4] = molecular target: T3, GPR10 (human, UniProt P49683 1-370)
T3 sequence (looked up): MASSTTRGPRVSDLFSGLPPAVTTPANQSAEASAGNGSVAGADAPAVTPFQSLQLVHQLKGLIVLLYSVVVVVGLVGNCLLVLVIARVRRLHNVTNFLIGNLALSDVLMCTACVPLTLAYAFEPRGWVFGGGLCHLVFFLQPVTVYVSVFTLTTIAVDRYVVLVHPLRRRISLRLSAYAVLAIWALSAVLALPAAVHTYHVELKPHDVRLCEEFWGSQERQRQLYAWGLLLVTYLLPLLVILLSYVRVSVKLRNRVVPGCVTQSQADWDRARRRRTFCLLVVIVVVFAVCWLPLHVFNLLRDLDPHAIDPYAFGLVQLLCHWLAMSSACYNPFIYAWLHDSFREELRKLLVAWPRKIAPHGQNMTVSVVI

[5] = molecular target: T4, NPFF-R1 (UniProt Q9GZQ6 1-430); assay: radioligand binding; competition with [^125I]-1DMe on plasma membranes of CHO-K1 cells with NPFF-R2 or NPFF-R1, 5 µg protein/tube; 50 mM Tris-HCl pH 7.4, 60 mM NaCl, 1 mM MgCl2, 0.5% BSA; 60 min at RT; filtration; Ki by the Cheng-Prusoff equation; details: one partner purified
T4 construct: also called NPFF-1R; source: CHO-K1 cell line, bought: Perkin Elmer

[6] = molecular target: T5, NPFF-R2 (UniProt Q9Y5X5 1-522); assay: as above; details: one partner purified
T5 construct: also called NPFF-2R; source: CHO-K1 cell line (AequoScreen), bought: Perkin Elmer

Molecule: SRAHQHSMETRTPDINPAWYTGRGIRPVGRF-NH2 [PrRP31, prolactin-releasing peptide 31, reference compound]
- EC50 of ERK activation [1]: in the nanomolar range
- EC50 of ERK activation [2]: in nanomolar concentrations

Molecule: [D-Pro10]-dynorphin A (peptide)
- Ki [3]: 0.36 nM

Molecule: human prolactin-releasing peptide 31
- EC50, agonist mode, β-lactamase reporter assay [4]: 0.53 nM

B1: 1DMe (peptide)
peptide: [dY]L[NMeF]QPQRF-NH2
modifications: N-terminus assumed
SMILES: CC(C)C[C@H](NC(=O)[C@H](N)Cc1ccc(O)cc1)C(=O)N(C)[C@@H](Cc1ccccc1)C(=O)N[C@@H](CCC(N)=O)C(=O)N1CCC[C@H]1C(=O)N[C@@H](CCC(N)=O)C(=O)N[C@@H](CCCNC(=N)N)C(=O)N[C@@H](Cc1ccccc1)C(N)=O
notes: numbers count on: the peptide NPFF; source: synthetic peptide, purified (HPLC, purity greater than 95%)
- Ki [5]: 0.79 nM
- Ki [6]: 1.03 nM
